Laboratory results from patent US20230201365A1, “MODIFIED CD20 ANTIBODIES AND USES THEREOF” (Bright Peak Therapeutics AG, priority 2021, published 2023).

Key:
mu FcγRI (CD64) = biological target: T1, mu FcγRI (CD64) (Mus musculus, UniProt P26151); experiment: Fc gamma receptor binding ELISA
T1 construct: purchased R&D Systems 2074-FC-050
T1 sequence (P26151 25-404): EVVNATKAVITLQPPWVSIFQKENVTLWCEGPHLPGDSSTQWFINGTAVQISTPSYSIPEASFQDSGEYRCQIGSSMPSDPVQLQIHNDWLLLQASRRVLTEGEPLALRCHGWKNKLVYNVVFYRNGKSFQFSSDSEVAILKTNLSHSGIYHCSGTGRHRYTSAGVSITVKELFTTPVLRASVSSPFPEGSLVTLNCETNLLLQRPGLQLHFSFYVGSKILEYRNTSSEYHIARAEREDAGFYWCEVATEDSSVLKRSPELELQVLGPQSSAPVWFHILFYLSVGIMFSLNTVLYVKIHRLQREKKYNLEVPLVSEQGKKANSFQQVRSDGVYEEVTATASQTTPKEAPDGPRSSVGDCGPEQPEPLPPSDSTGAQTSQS
Method: (§1) To analyze Fc Receptor gamma binding test molecules were diluted to 2.5 ug/ml in PBS and plates were coated overnight at 4° C. The next day the assay plates were washed four times with 100 ul of wash buffer: PBS+0.02% Tween 20 and blocked with PBS+1% BSA, for one hour at 37° C., with shaking at 600 RPM. The blocked plates were then washed four times with 100 ul wash buffer. Diluted FcRgamma (Reagents listed, below) was freshly diluted in wash buffer. Plates were then incubated with 25 ul of diluted Fc for two hours with shaking at 600 RPMs, then washed with 100 ul wash buffer, four times. The wells were then incubated with 25 ul of either 1:500 diluted streptavidin-Horseradish peroxidase (HRP) for detection of human FcgR or 1:500 diluted Anti-HIS tag antibody-HRP in wash buffer. The HPR detection molecules were incubated in the wells at room temperature for one hour with shaking at 600 RPMs. Plate wells were washed with 100 ul of wash buffer, four times. Plates were detected using the chromogenic HRP substrate 3,3′,5,5;-tetramethylbenzidine (TMB). Samples were read using a spectrophotometer plate reader with OD set to 450 nm.

mu FcγRIV (CD16-2) = biological target: T2, mu FcγRIV (CD16-2) (Mus musculus, UniProt A0A0B4J1G0); experiment: Fc gamma receptor binding ELISA; settings: mu FcγRIV (CD16-2) ELISA
T2 construct: purchased R&D Systems 1974-CD-050
T2 sequence (A0A0B4J1G0 21-249): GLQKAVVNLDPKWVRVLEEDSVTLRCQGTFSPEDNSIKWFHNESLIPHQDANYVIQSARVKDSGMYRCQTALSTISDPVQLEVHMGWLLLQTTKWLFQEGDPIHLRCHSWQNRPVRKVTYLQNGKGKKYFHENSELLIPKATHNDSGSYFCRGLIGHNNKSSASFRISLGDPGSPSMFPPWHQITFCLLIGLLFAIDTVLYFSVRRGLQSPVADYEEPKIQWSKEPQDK
Method: as §1

hu FcγRIIb (CD32b) = biological target: T3, hu FcγRIIb (CD32b) (Homo sapiens, UniProt P31994); experiment: Fc gamma receptor binding ELISA
T3 construct: Avi-tag; purchased R&D Systems AVI1875-050
T3 sequence (P31994 43-310): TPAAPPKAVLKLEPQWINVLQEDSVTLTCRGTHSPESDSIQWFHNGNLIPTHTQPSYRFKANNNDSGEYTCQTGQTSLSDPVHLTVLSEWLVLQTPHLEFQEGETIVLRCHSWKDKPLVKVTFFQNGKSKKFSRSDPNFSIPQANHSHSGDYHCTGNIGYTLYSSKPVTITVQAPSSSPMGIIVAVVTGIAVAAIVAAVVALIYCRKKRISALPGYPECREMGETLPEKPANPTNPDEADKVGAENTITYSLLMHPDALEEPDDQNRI
Method: as §1

hu FcγRIII (CD16a) = biological target: T4, hu FcγRIII (CD16a) (Homo sapiens, UniProt P08637); experiment: Fc gamma receptor binding ELISA
T4 construct: purchased R&D Systems 4325-FC-050
T4 sequence (P08637 17-254): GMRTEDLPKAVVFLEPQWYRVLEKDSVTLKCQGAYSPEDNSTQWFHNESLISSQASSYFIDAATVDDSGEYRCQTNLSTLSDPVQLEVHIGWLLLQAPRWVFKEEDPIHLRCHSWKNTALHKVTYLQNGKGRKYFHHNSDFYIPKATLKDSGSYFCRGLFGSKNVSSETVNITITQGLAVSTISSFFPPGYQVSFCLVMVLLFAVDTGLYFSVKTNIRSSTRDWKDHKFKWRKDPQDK
Method: as §1

hu FcγRI (CD64) = biological target: T5, hu FcγRI (CD64) (Homo sapiens, UniProt P12314); experiment: Fc gamma receptor binding ELISA
T5 construct: purchased R&D Systems 1257-FC-050
T5 sequence (P12314 16-374): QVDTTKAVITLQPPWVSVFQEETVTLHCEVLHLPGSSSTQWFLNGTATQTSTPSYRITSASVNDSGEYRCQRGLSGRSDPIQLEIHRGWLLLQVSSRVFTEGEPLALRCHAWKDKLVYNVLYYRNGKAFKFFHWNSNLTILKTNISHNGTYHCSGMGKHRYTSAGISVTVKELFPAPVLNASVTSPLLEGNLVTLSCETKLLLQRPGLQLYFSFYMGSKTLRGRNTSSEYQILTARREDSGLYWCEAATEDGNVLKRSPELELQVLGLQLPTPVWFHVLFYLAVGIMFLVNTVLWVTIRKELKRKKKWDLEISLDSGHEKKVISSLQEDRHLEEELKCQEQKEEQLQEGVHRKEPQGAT
Method: as §1

mu FcγRIII (CD16) = biological target: T6, mu FcγRIII (CD16) (Mus musculus, UniProt P08508); experiment: Fc gamma receptor binding ELISA
T6 construct: purchased R&D Systems 1960-FC-050
T6 sequence (P08508 31-261): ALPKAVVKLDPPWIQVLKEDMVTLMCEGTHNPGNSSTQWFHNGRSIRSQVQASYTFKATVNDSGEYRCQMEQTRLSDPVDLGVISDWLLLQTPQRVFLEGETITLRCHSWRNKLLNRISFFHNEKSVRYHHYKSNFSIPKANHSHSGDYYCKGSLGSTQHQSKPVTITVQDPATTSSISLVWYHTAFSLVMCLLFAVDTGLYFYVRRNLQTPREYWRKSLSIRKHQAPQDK
Method: as §1

Raji cells = experiment: Antibody-dependent cell-mediated cytotoxicity (ADCC) bioassay; type: cell-based, human; settings: 25:1 PBMC:Raji, FIG. 6
Method: To determine the effectiveness of antiCD20 IL-2 immunoconjugates in activating immune cell function, an ADCC assay was employed. Human peripheral blood mononuclear cells (hPBMC) and target cells (Raji cells expressing HiBiT) were purchased from Promega as a kit (PBMC ADCC Bioassay Kit Raji, # CS3055A17). […] Once the cells recovered cells were counted. Raji cells were suspended at a concentration of 2×10^5 per ml, and PBMCs were suspended at 5×10^6 per ml. The killing assay was conducted in a 96 well U-bottom plate. Cells were seeded at a ratio of 25:1 Effector cell (PBMC):antiCD20 Target cell (Raji). Plates were incubated for 24 hours at 37 C in 5% CO2. Cell mixtures were treated with serial dilutions of immunocytokines to induce ADCC and placed back in the incubator for an additional 24 hours. Tissue culture supernatants from wells were assayed using Nano-Glo® HiBiT Extracellular assay detection kit.

hu CD20 = biological target: T7, hu CD20 (Homo sapiens, UniProt P11836); experiment: CD20 binding ELISA
T7 sequence (P11836 1-297): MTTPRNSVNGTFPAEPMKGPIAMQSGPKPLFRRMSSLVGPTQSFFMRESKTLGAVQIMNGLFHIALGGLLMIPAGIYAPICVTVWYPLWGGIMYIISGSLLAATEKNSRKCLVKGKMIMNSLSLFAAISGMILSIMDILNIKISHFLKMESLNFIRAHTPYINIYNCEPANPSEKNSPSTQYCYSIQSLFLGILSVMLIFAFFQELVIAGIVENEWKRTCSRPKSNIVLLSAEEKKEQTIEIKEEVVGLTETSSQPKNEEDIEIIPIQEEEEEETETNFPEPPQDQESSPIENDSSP
Method: The interaction of the unmodified and of conjugated anti-CD20 antibodies with CD20 were measured by ELISA assay. […] Plates were washed four times with 100 μl of PBS-0.02% Tween20. and blocked with 25 μl of PBS-0.02% Tween20-1% BSA at 37° C. with shaking at 600 RPM, for 1 h. Plates were then washed four times with 100 μl of PBS-0.02% Tween20. […] Plates were then washed four times with 100 μl of PBS-0.02% Tween20. 25 ul of Streptavidin-Horseradish peroxidase (#RABHRP3, Merck, Buchs, Switzerland) diluted at 1:500 into PBS-0.02% Tween20-0.1% BSA were added to each well and incubated at room temperature for 30 min. Plates were then washed four times with 100 μl of PBS-0.02% Tween20. […] ELISA signal is then measured at 450 nm on an ENSPIRE® plate reader from Perkin Elmer (Schwerzenbach, Switzerland).

Human FcRn = biological target: T8, Human FcRn (Homo sapiens, UniProt P55899); experiment: FcRn binding AlphaLISA; settings: hu FcRN binding aLISA
T8 construct: purchased PerkinElmer AL3095C
Method: Human IgG Conjugated Acceptor Beads (2×) and Streptavidin (SA) Donor Beads were diluted to reach final concentrations of 5 μg/ml.
To wells in the assay plates, 10 ul of diluted antibodies, 10 ul of diluted FcRn, 20 ul of human IgG conjugated Acceptor beads, and SA-Donor beads were added.

B cells = experiment: B cell depletion in hCD20 transgenic C57BL/6 mice; type: in vivo; settings: 5 mg/kg single intraperitoneal injection on Day 0, FIG. 7A
Method: Animal Groupings and administration: 9 animals were randomly enrolled into three study groups based on the body weight 5 days before administration (day −5). Each group consists of 3 mice. Single doses were administered 5 day post grouping (Day 0).
Sample collection: 100 μL whole blood were collected with anticoagulant (DETA-2K) for flow cytometry. Collection time points: Day −5, Day 6, Day 9, Day 14, and Day 21.
Flow cytometry: Preparation of single cell suspensions: For the treatment of spleen samples, the spleen was transferred to a 35 mm culture dish, and then ground with a sterile syringe tail. The cells were washed and centrifuged at 500 g for 5 min at 4° C. The cell pellet was resuspended with 2 ml of red blood cell lysis buffer and incubated for 5-8 min at room temperature. A volume 10 mL of PBS was added to the cell suspension to stop the lysing, and centrifuged at 500 g for 5 min at 4° C. The cells were counted using a blood cell counting chamber. For the treatment of the blood samples, 100 μL of the blood sample was transferred into a 1.5 mL EP tube. To this, 1.4 mL of red blood cell lysis buffer is added, and mixed by inversion. The lysis is carried out for 5-8 min at room temperature. The lysed blood sample is centrifuge at 500 g for 5 min at 4° C. The resultant cell pellet is resuspended in PBS to the required volume for flow cytometry.
The flow cytometry protocol is as follows. […]

EC50 (mu FcγRI (CD64)): 35 nM | EC50 (mu FcγRIV (CD16-2)): 20 nM | EC50 (hu FcγRIIb (CD32b)): 880 nM | EC50 (hu FcγRIII (CD16a)): 185 nM | EC50 (hu FcγRI (CD64)): 0.23 nM | EC50 (mu FcγRIII (CD16)): 133 nM | EC50 (hu CD20): 0.08 nM | EC50 (Human FcRn): 4 nM
Substance: Anti-CD20 Antibody: parent anti-CD20 antibody biosimilar Rituximab, unconjugated
ADCC-targeted cell killing of Raji cells (Raji cells): Less cell killing overall | depletion of B cells (B cells): substantial ability to deplete B cells
